In assay [1] the target is human OX40 expressed on the cell surface (human) (UniProt P43489). Briefly: cell-based or functional assay.
Assay [2] has as its target recombinant OX40-Fc protein (R & D, Cat 3388-OX) (human) (UniProt P43489). Briefly: blocking ELISA: OX40-Fc coated, antibody titrated, competitor OX40L at 50 ng/ml.

Sequence of recombinant OX40-Fc protein (R & D, Cat 3388-OX) (human) (P43489 29-214): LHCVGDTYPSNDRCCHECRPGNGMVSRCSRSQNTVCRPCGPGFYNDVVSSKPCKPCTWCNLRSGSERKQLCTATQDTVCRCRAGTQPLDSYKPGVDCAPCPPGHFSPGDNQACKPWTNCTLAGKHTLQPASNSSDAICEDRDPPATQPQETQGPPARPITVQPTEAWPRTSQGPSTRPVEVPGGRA
Sequence of human OX40 expressed on the cell surface (human) (P43489 29-277): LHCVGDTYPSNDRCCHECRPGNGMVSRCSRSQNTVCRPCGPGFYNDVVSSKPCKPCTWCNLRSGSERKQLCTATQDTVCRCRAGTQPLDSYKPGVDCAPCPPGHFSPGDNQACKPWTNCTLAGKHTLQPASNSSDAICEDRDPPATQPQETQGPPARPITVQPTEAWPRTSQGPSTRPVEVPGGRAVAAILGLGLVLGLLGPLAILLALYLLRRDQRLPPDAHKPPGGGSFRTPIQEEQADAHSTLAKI

B1: GBR830 (antibody, from another filing, V domains shown)
VH: QVTLKESGPALVKPTQTLTLTCSFSGFSLSTSGMGVGWIRQPPGKALEWIAHIWWDDDKYYNTALKTRLTISKDTSKNQVVLTMTNMDPVDTATYYCARIDWDGFAYWGQGTLVTVSS
VL: EIVLTQSPATLSLSPGERATLSCRASSSVSYMHWYQQKPGQAPRPWIYATSNRATGIPARFSGSGSGTDYTLTISSLEPEDFAVYYCQQWSSNPWTFGQGTKVEIKR
B1 had a blocking of OX40L-mediated T cell activation, IFNγ secretion, IC50 in assay [1] of 1.1 nM. Also, in assay [2], the IC50 was determined as 0.3 nM and the maximum inhibition rate was 50%.

The IC50 is the midpoint of a concentration-inhibition curve.

(Values after patent US20230151105A1.)
